Experimental data taken from publication PMC3858840.
Where two headings read alike, the source gives them in different places.

Legend:
[1] = biological target: FERM domain of human moesin (residues 1–346) (human) (UniProt P26038); assay: other fluorescence titration
[2] = biological target: L-selectin cytoplasmic peptide cytoplasmic domain (Homo sapiens) (UniProt P14151); settings: cited from earlier work
[3] = biological target: moesin-FERM/TMR-CLS complex in 15% POPS/85% POPC liposome (human) (UniProt P26038); assay: other fluorescence titration
[4] = biological target: TMR-CLS: TMR-labeled CLS_S329C (transmembrane and cytoplasmic domains of human L-selectin), in liposomes (human); assay: other fluorescence titration
[5] = biological target: TMR-CLS: TMR-labeled CLS_S329C (transmembrane and cytoplasmic domains of human L-selectin), in liposomes (human); assay: other fluorescence titration; remark: listed apart in the source
[6] = biological target: TMR-CLS: TMR-labeled CLS_S329C (transmembrane and cytoplasmic domains of human L-selectin), in liposomes (human); assay: other fluorescence titration; remark: listed apart in the source
[7] = biological target: TMR-CLS: TMR-labeled CLS_S329C (transmembrane and cytoplasmic domains of human L-selectin), in liposomes (human); assay: other fluorescence titration; remark: listed apart in the source
[8] = biological target: TMR-CLS: TMR-labeled CLS_S329C (transmembrane and cytoplasmic domains of human L-selectin), in liposomes (human); assay: other fluorescence titration; remark: listed apart in the source
[9] = biological target: TMR-ARR18, ARR18 with the N-terminal residue changed to cysteine and labelled with tetramethylrhodamine-5-maleimide (human); assay: other fluorescence titration
[10] = biological target: TMR-CLS: TMR-labeled CLS_S329C (transmembrane and cytoplasmic domains of human L-selectin), in liposomes (human); assay: other fluorescence titration; remark: listed apart in the source

FERM domain of human moesin (residues 1–346), sequence (P26038 1-346): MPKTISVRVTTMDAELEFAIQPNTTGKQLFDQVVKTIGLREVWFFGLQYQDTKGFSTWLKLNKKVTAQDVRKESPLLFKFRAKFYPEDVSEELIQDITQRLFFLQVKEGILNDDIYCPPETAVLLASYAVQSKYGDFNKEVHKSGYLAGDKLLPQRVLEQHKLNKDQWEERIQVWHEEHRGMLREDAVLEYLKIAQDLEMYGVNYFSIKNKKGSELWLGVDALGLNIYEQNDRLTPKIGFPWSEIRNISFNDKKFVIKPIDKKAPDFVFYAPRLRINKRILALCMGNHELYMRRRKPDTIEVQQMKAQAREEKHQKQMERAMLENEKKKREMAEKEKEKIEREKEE
FERM domain of human moesin (residues 1–346) (human), sequence (P26038 1-346): as above
moesin N-terminal fragment 1-296, sequence (P26038 1-296): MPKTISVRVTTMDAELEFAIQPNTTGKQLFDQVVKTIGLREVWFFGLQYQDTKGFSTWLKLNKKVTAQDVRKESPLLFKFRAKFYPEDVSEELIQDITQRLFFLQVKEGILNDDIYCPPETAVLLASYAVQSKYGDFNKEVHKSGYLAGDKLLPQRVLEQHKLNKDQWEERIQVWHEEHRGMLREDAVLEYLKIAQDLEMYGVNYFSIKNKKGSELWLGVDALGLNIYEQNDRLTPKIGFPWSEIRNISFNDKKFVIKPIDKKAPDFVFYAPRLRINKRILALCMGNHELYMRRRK

For “ARR18, cytoplasmic domain peptide of human L-selectin (residues Ala317–Tyr334)”, the Kd [1] was 0.196 µM.

For “moesin N-terminal fragment 1-296 (from UniProt P26038)”, the Kd [2] is listed as 0.04 µM.

With “calmodulin (CaM), wild type (from UniProt P0DP23 1-149) (natural protein)” the Kd [3] was 0.8 µM.

In the case of “FERM domain of human moesin (residues 1–346) (from UniProt P26038 1-346) (domain or fragment)”, the Kd [4] is reported as 0.133 µM, the Kd [5] is reported as 0.074 µM and the Kd [6] is reported as 0.067 µM. It also gave a Kd [7] of 0.07 µM, a Kd [8] of 0.096 µM and a Kd [9] of 0.214 µM. For the same substance, the Kd [10] was 0.302 µM.
